{
  "source": "the supplement of paper PMC10567573",
  "parents": {"B1": {"name": "SNX8 (parent)", "chain": "LHQETQLIHVYLPLTSHILRAFVN"}},
  "data": [
    {"variants_of": "B1", "assay": "protein stability index of a GFP-peptide fusion (GPS, HEK-293T) (PSI 1-6); higher = more stable", "conditions": "c terminus: a fixed tail appended", "values": [
      {"variant": "F22L", "protein stability index": 2.39},
      {"variant": "F22Y", "protein stability index": 4.5},
      {"variant": "F22K", "protein stability index": 2.21},
      {"variant": "F22S", "protein stability index": 2.14},
      {"variant": "F22I", "protein stability index": 1.79},
      {"variant": "F22C", "protein stability index": 3.79},
      {"variant": "F22P", "protein stability index": 3.46},
      {"variant": "F22M", "protein stability index": 1.52},
      {"variant": "F22D", "protein stability index": 2.12},
      {"variant": "F22Q", "protein stability index": 2.57},
      {"variant": "F22N", "protein stability index": 1.92},
      {"variant": "F22H", "protein stability index": 1.96},
      {"variant": "F22G", "protein stability index": 2.88},
      {"variant": "F22R", "protein stability index": 2.4},
      {"variant": "F22V", "protein stability index": 2.75},
      {"variant": "I18A", "protein stability index": 1.85},
      {"variant": "I18Q", "protein stability index": 2.27},
      {"variant": "I18D", "protein stability index": 2.65},
      {"variant": "I18M", "protein stability index": 1.88},
      {"variant": "I18H", "protein stability index": 2.63},
      {"variant": "I18V", "protein stability index": 3.55},
      {"variant": "I18F", "protein stability index": 1.93},
      {"variant": "I18N", "protein stability index": 1.79},
      {"variant": "I18P", "protein stability index": 3.99},
      {"variant": "I18T", "protein stability index": 2.89},
      {"variant": "I18R", "protein stability index": 2.44},
      {"variant": "I18S", "protein stability index": 3.95},
      {"variant": "I18Y", "protein stability index": 2.39},
      {"variant": "I18G", "protein stability index": 1.71},
      {"variant": "I18K", "protein stability index": 1.97},
      {"variant": "I18C", "protein stability index": 3.75},
      {"variant": "I18W", "protein stability index": 2.33},
      {"variant": "I18L", "protein stability index": 3.11},
      {"variant": "H17M", "protein stability index": 2.52},
      {"variant": "H17S", "protein stability index": 3.54},
      {"variant": "H17E", "protein stability index": 2.75},
      {"variant": "H17D", "protein stability index": 2.58},
      {"variant": "H17F", "protein stability index": 3.82},
      {"variant": "H17L", "protein stability index": 1.69},
      {"variant": "H17T", "protein stability index": 1.85},
      {"variant": "H17R", "protein stability index": 2.42},
      {"variant": "H17A", "protein stability index": 2.06},
      {"variant": "H17N", "protein stability index": 2.47},
      {"variant": "H17G", "protein stability index": 1.77},
      {"variant": "H17W", "protein stability index": 3.19},
      {"variant": "H17V", "protein stability index": 1.92},
      {"variant": "H17C", "protein stability index": 1.58},
      {"variant": "H17P", "protein stability index": 2.34},
      {"variant": "H17Y", "protein stability index": 2.6},
      {"variant": "H17I", "protein stability index": 2.46},
      {"variant": "H17Q", "protein stability index": 2.97},
      {"variant": "P13W", "protein stability index": 3.14},
      {"variant": "P13S", "protein stability index": 3},
      {"variant": "P13T", "protein stability index": 2.91},
      {"variant": "P13M", "protein stability index": 2.55},
      {"variant": "P13Q", "protein stability index": 2.68},
      {"variant": "P13R", "protein stability index": 2.29},
      {"variant": "P13Y", "protein stability index": 1.95},
      {"variant": "P13L", "protein stability index": 3.99},
      {"variant": "P13V", "protein stability index": 1.85},
      {"variant": "A21N", "protein stability index": 3.01},
      {"variant": "A21Q", "protein stability index": 2.01},
      {"variant": "A21E", "protein stability index": 2.48},
      {"variant": "A21R", "protein stability index": 2.63},
      {"variant": "A21M", "protein stability index": 3.49},
      {"variant": "A21P", "protein stability index": 2.84},
      {"variant": "A21K", "protein stability index": 2.03},
      {"variant": "A21Y", "protein stability index": 2.35},
      {"variant": "A21D", "protein stability index": 2.8},
      {"variant": "A21I", "protein stability index": 3.77},
      {"variant": "A21C", "protein stability index": 2.73},
      {"variant": "A21W", "protein stability index": 2.18},
      {"variant": "A21F", "protein stability index": 1.38},
      {"variant": "A21T", "protein stability index": 1.84},
      {"variant": "L14N", "protein stability index": 4.27},
      {"variant": "L14K", "protein stability index": 3.14},
      {"variant": "L14M", "protein stability index": 2.41},
      {"variant": "L14R", "protein stability index": 2.49},
      {"variant": "L14A", "protein stability index": 2.98},
      {"variant": "L14W", "protein stability index": 1.8},
      {"variant": "L14T", "protein stability index": 2.29},
      {"variant": "L14D", "protein stability index": 2.72},
      {"variant": "L14F", "protein stability index": 1.31},
      {"variant": "L14H", "protein stability index": 2.13},
      {"variant": "L14Q", "protein stability index": 3.75},
      {"variant": "L14V", "protein stability index": 3.59},
      {"variant": "L14P", "protein stability index": 2.64},
      {"variant": "L14S", "protein stability index": 2},
      {"variant": "L14C", "protein stability index": 3.23},
      {"variant": "L14G", "protein stability index": 3.49},
      {"variant": "L14Y", "protein stability index": 1.58},
      {"variant": "L19G", "protein stability index": 3.75},
      {"variant": "L19P", "protein stability index": 3.45},
      {"variant": "L19D", "protein stability index": 1.52},
      {"variant": "L19H", "protein stability index": 2.24},
      {"variant": "L19N", "protein stability index": 1.99},
      {"variant": "L19F", "protein stability index": 3.61},
      {"variant": "L19I", "protein stability index": 3.22},
      {"variant": "L19Y", "protein stability index": 3.67},
      {"variant": "L19T", "protein stability index": 1.84},
      {"variant": "L19V", "protein stability index": 4.01},
      {"variant": "L19W", "protein stability index": 1.57},
      {"variant": "L19A", "protein stability index": 2.99},
      {"variant": "L19K", "protein stability index": 2.47},
      {"variant": "L19S", "protein stability index": 2.3},
      {"variant": "L19E", "protein stability index": 2.23},
      {"variant": "L19Q", "protein stability index": 5.08},
      {"variant": "L19C", "protein stability index": 2.66},
      {"variant": "T15L", "protein stability index": 1.86},
      {"variant": "T15C", "protein stability index": 2.46},
      {"variant": "T15D", "protein stability index": 3.4},
      {"variant": "T15I", "protein stability index": 2.85},
      {"variant": "T15A", "protein stability index": 2.23},
      {"variant": "T15Q", "protein stability index": 1.75},
      {"variant": "T15G", "protein stability index": 1.2},
      {"variant": "T15H", "protein stability index": 3.58},
      {"variant": "T15W", "protein stability index": 2.9},
      {"variant": "T15R", "protein stability index": 2.25},
      {"variant": "T15F", "protein stability index": 1.58},
      {"variant": "T15P", "protein stability index": 2.3},
      {"variant": "T15V", "protein stability index": 4.03},
      {"variant": "T15M", "protein stability index": 1.58},
      {"variant": "T15K", "protein stability index": 3.35},
      {"variant": "T15Y", "protein stability index": 1.79},
      {"variant": "T15N", "protein stability index": 3.74},
      {"variant": "R20V", "protein stability index": 1.72},
      {"variant": "R20M", "protein stability index": 3.04},
      {"variant": "R20N", "protein stability index": 3.03},
      {"variant": "R20P", "protein stability index": 3},
      {"variant": "R20G", "protein stability index": 3.27},
      {"variant": "R20T", "protein stability index": 1.72},
      {"variant": "R20I", "protein stability index": 2.9},
      {"variant": "R20Y", "protein stability index": 3.11},
      {"variant": "R20L", "protein stability index": 3.82},
      {"variant": "R20H", "protein stability index": 2.95},
      {"variant": "R20D", "protein stability index": 1.93},
      {"variant": "R20A", "protein stability index": 3.61},
      {"variant": "R20Q", "protein stability index": 1.89},
      {"variant": "R20C", "protein stability index": 2.94},
      {"variant": "S16L", "protein stability index": 2.08},
      {"variant": "S16M", "protein stability index": 2},
      {"variant": "S16Q", "protein stability index": 2.5},
      {"variant": "S16H", "protein stability index": 1.82},
      {"variant": "S16W", "protein stability index": 2.31},
      {"variant": "S16E", "protein stability index": 2.16},
      {"variant": "S16N", "protein stability index": 2.52},
      {"variant": "S16A", "protein stability index": 1.94},
      {"variant": "S16Y", "protein stability index": 2.08},
      {"variant": "S16C", "protein stability index": 2.36},
      {"variant": "S16R", "protein stability index": 2.83},
      {"variant": "S16K", "protein stability index": 2.77},
      {"variant": "S16V", "protein stability index": 1.81},
      {"variant": "S16I", "protein stability index": 1.47},
      {"variant": "V23T", "protein stability index": 3.16},
      {"variant": "V23I", "protein stability index": 1.96},
      {"variant": "V23A", "protein stability index": 3.31},
      {"variant": "V23Q", "protein stability index": 2.27},
      {"variant": "V23F", "protein stability index": 2.14},
      {"variant": "V23M", "protein stability index": 2.4},
      {"variant": "V23S", "protein stability index": 2},
      {"variant": "V23D", "protein stability index": 2.39},
      {"variant": "V23Y", "protein stability index": 3.02},
      {"variant": "V23E", "protein stability index": 2.79},
      {"variant": "V23P", "protein stability index": 2.03},
      {"variant": "V23W", "protein stability index": 3.24},
      {"variant": "V23H", "protein stability index": 2.58},
      {"variant": "V23L", "protein stability index": 2.22}
    ]}
  ]
}
